Results from article PMC11218354.

Tests used:
nucleolin [1] = biological target: nucleolin (UniProt P19338); experiment: ELONA; conditions: 1 mM Mg2+; U6 = 5-fluorouridine (5FU replaces T6; printed F); ELONA: 1x PBS, 1 mM MgCl2, 0.05% Tween 20, 1 uM biotin
nucleolin [2] = biological target: nucleolin (UniProt P19338); experiment: SPR; conditions: SPR: 1x PBS, nucleolin on CM5 chip, analyte 0.156-10 uM, regeneration 50 mM NaOH, temperature not stated, ELONA: 1x PBS, 1 mM MgCl2, 0.05% Tween 20, 1 uM …

Chain of nucleolin (P19338 2-710): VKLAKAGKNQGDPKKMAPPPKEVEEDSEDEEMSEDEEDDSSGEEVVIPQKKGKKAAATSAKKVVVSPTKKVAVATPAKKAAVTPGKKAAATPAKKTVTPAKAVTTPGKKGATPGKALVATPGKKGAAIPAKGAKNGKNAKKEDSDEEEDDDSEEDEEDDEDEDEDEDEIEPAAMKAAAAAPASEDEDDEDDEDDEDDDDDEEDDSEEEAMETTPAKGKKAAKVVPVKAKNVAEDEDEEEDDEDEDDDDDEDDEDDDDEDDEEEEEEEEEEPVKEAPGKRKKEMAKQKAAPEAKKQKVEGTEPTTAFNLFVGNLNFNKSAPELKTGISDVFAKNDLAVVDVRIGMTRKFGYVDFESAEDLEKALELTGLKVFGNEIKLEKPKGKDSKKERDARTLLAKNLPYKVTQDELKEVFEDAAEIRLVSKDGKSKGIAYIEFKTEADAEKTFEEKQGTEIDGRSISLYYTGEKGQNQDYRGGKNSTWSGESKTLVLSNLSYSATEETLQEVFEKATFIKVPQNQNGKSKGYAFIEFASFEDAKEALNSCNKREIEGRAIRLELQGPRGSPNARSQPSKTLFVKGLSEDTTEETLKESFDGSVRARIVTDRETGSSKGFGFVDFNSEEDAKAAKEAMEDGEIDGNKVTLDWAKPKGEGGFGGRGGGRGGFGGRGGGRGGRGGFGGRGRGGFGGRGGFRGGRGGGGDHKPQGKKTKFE

In the case of “GGTGGUGGTGGTTGTGGTGGTGGTGG [FA, biotinylated (sequence 2)]”, the binding signal (nucleolin [1]) is reported as > 100 % of AS1411.
GGTGGTGGTGGTTGTGGTGGTGGTGG [AS1411] gave a Kd (nucleolin [2]) of 69.1 nM.
For “GGTGGUGGTGGTTGTGGTGGTGGTGG [FA (sequence 2, 5FU at site 6 of AS1411)]”, the Kd (nucleolin [2]; U6 = 5-fluorouridine (5FU replaces T6; printed F)) was 24.8 nM.
For “GGTGGUGGTGGTTGTGGTGGTGGTGG [FASP (FA-paclitaxel, thioether linker)]”, the Kd (nucleolin [2]; U6 = 5-fluorouridine (5FU replaces T6), 3'-amino DNA conjugated to paclitaxel through thioether linker) was 61.7 nM.
Work on “GGTGGTGGTGGTTGTGGTGGTGGTGG [ASP (AS1411-paclitaxel, thioether linker)]” yielded a Kd (nucleolin [2]; 3'-amino DNA conjugated to paclitaxel through thioether linker) of 253 nM.
